Test results as given in PMC7611088.

Molecular target: human β3 homopentameric GABAAR construct (K279T, M3-M4 loop replaced by SQPARAA) (human) (UniProt P28472)
Test: cryo-EM structure

stoichiometry N: 5
Substance: human β3 homopentameric GABAAR construct (K279T, M3-M4 loop replaced by SQPARAA) (from UniProt P28472 26-473) (receptor)
